This is an account of results in patent publication EP4592321A1 (Biotheus Inc., dated 2025).

Numbering of substitutions follows the chain as printed.

In test [1] the target is T1, HER2 expressed on human gastric cancer cell N87 (human, UniProt P04626 23-1255).
T1 construct: whole, on cells; N87 cells are described as self-expressing HER2; also called human HER2 on N87 cells; HER2 antigen on N87
The test can be described thus: flow cytometry on N87 cells, MFI, anti-human IgG-Fc PE. Background: In flow cytometry, cells or beads pass a laser one at a time.

The target of test [2] is T2, human HER2 antigen (purchased from AcroBiosystems) (human, UniProt P04626 23-652).
T2 construct: Bought soluble antigen used at 100 nM in BLI; also called human HER2 protein; HER2 protein
The experiment in a line: BLI (ForteBio), antibody on AHQ sensor, 100 nM HER2, 1:1 model.

Test [3] addresses T2, human HER2 antigen (purchased from …). The test can be described thus: BLI (ForteBio), antibody before and after 2 and 4 weeks at 40 C on AHQ sensor, 100 nM human HER2.

B1: Anti-HER2(NO3-02) (antibody, human IgG1, kappa, V domains shown)
VH: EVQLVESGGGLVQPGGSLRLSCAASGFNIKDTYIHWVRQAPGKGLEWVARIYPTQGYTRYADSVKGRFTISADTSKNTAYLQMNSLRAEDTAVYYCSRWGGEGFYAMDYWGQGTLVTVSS
VL: DIQMTQSPSSLSASVGDRVTITCRASQNVQGAVAWYQQKPGKAPKLLIYSASFLYSGVPSRFSGSRSGTDFTLTISSLQPEDFATYYCQQHYSTPPTFGQGTKVEIKR
notes: also called optimized Anti-HER2 antibody
As for B1, the binding result in test [1] and in test [2] was “binds” each time.

B2: Anti-HER2(NO3-36) (antibody, human IgG1, kappa, V domains shown)
VH: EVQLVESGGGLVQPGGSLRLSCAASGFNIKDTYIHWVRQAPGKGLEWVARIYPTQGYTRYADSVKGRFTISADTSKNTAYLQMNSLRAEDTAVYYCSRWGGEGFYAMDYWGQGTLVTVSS
VL: B1 VL with Q27N, N28Y, G31T, Y92F, S93M
notes: as for B1
B2: the binding result in test [1] and in test [2] was “binds” each time.

B3: Anti-HER2(NO3-46) (antibody, human IgG1, kappa, V domains shown)
VH: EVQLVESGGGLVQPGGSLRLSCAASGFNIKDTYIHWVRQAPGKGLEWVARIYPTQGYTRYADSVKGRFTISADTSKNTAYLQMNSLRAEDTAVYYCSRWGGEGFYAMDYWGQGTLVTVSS
VL: B1 VL with N28S, Y92S, S93T
notes: as for B1
Take B3: the binding result in test [1] and in test [3] was “binds” each time.

B4: Anti-HER2(NO3-02)_single arm (antibody, human IgG1, kappa)
heavy: not shown
light: DIQMTQSPSSLSASVGDRVTITCRASQNVQGAVAWYQQKPGKAPKLLIYSASFLYSGVPSRFSGSRSGTDFTLTISSLQPEDFATYYCQQHYSTPPTFGQGTKVEIKRTVAAPSVFIFPPSDEQLKSGTASVVCLLNNFYPREAKVQWKVDNALQSGNSQESVTEQDSKDSTYSLSSTLTLSKADYEKHKVYACEVTHQGLSSPVTKSFNRGEC
chain: not shown
notes: also called Anti-HER2 single-arm antibody
On to B4, for which the binding result in test [1] and in test [2] was “binds” each time.

B5: Anti-HER2(NO3-36)_single arm (antibody, human IgG1, kappa)
heavy: not shown
light: B4 light with Q27N, N28Y, G31T, Y92F, S93M
chain: not shown
notes: as for B4
With B5, the binding result in test [1] and in test [2] was “binds” each time.

B6: Anti-HER2(NO3-46)_single arm (antibody, human IgG1, kappa)
heavy: not shown
light: B4 light with N28S, Y92S, S93T
chain: not shown
notes: as for B4
In the case of B6, the binding result in test [1] and in test [2] was “binds” in each case.
